Test results from paper PMC3733160.
Like-named read-outs stand apart in the source and are kept apart here.

Legend:
[1] = biological target: 2-CysPrx C54S variant, non-tagged (Arabidopsis thaliana); assay: SEC
[2] = biological target: 2-CysPrx C176S variant, non-tagged (Arabidopsis thaliana); assay: SEC
[3] = biological target: 2-CysPrx C176S variant, non-tagged (Arabidopsis thaliana); assay: ITC
[4] = biological target: 2-CysPrx C-terminally truncated variant ΔC (–20 aa), non-tagged (Arabidopsis thaliana); assay: SEC
[5] = biological target: 2-CysPrx F84R variant, non-tagged (Arabidopsis thaliana); assay: SEC
[6] = biological target: 2-CysPrx F84R variant, non-tagged (Arabidopsis thaliana); assay: SEC; remark: listed apart in the source
[7] = biological target: 2-Cysteine peroxiredoxin A (At2-CysPrx) wild type, non-tagged (Arabidopsis thaliana); assay: SEC
[8] = biological target: 2-Cysteine peroxiredoxin A (At2-CysPrx) wild type, non-tagged (Arabidopsis thaliana); assay: ITC
[9] = biological target: 2-Cysteine peroxiredoxin A (At2-CysPrx) wild type, non-tagged (Arabidopsis thaliana); assay: SEC; remark: listed apart in the source

## 2-CysPrx C54S variant, non-tagged (enzyme)
[1]
  stoichiometry N: 10

## 2-CysPrx C176S variant, non-tagged (enzyme)
[2]
  stoichiometry N: 10
[3]
  CTC (critical transition concentration, oligomer to dimers): 0.63 µM
  dH (dissociation enthalpy ΔHm): 1610 kcal/mol

## 2-CysPrx C-terminally truncated variant ΔC (–20 aa), non-tagged (enzyme)
[4]
  stoichiometry N: 2

## 2-CysPrx F84R variant, non-tagged (enzyme)
[5]
  stoichiometry N: 2
[6]
  stoichiometry N: 2

## 2-Cysteine peroxiredoxin A (At2-CysPrx) wild type, non-tagged (enzyme)
[7]
  stoichiometry N: 2
[8]
  CTC (critical transition concentration, oligomer to dimers): 3.73 µM
  dH (dissociation enthalpy ΔHm): 72 kcal/mol
[9]
  stoichiometry N: 10
